Reference: patent US6683162B2, “Targeted alpha particle therapy using actinium-255 conjugates” (Sloan Kettering Institute of Cancer Research, priority 2000, dated 2004)

Key:
[1] = system: antigen negative cells (Daudi); assay: Cell based immunoreactivity assay, antigen negative cells; format: binding; settings: on ice
Experimental: (§1) A cell based immunoreactivity assay (binding of labeled antibody to antigen excess) was used to determine the percentage of HuM195 that retained its immunoreactivity after conjugation and purification. The assay was conducted with antigen positive cells (HL60, available from American Tissue Culture Collection [ATCC]) and antigen negative cells (Daudi, ATCC).
(§2) The cells were centrifuged, the supernatant removed and the cells resuspended to a density of 10^8 cells/ml in 2% w/v bovine serum albumin in phosphate buffered saline, pH 7.2 (PBS). Aliquots of cell suspension ([…]) were transferred to microcentrifuge tubes placed on ice to which purified ^225Ac-HuM195-DOTA (3 ng) was added. The cell suspensions were incubated for 30 min, centrifuged and the supernatant containing any unbound ^225Ac-HuM195-DOTA was transferred to a second microcentrifuge tube of cell suspension. The second tube was incubated on ice for 30 min. The first cell pellets were washed with PBS and the cells and washes saved for γ emission counting. The second set of cell suspensions were centrifuged, the supernatant removed and the pellets were washed with PBS. The set of supernate, cell pellets and washes were saved for counting. The percentage of radioactivity that was associated with the cells was then determined.

[2] = system: human HL60 leukemia cells; assay: In vitro cytotoxicity (LD50), HL60, tritiated thymidine incorporation; format: cell-based
Experimental: The potency and specificity of 225Ac-HuM195-DOTA was then evaluated in-vitro as a function of specific activity and activity concentration (FIG. 6). A suspension of HL60 cells were washed twice with complete media and then dispensed into a 96 well cell culture plate in complete media supplemented with 2% human serum. The volume was 100 μl and the cells were at a density of 5×10^5 cells/ml. Next a serial dilultion of purified ^225Ac-HuM195-DOTA was added to the wells. The diluent was complete media and volume added was 100 μl. The starting activity was 10 nCi/ml, which was diluted 5-fold for each subsequent tube. […] The cells were incubated for 2 days at 37° C., following which tritiated thymidine was added (0.5 pC, in 50 il complete media/well). The cells were incubated at 37° C. for an additional 5 h, then harvested using a Combi Cell Harvestor (Skatron Instruments). Cell viability was determined by analyzing the degree of tritiated thymidine incorporated into the DNA of the treated cells relative to control cells.
The potency and specificity of [225Ac]IgG for killing single cancer cells is determined using 5E4 cells in 0.2 mL per well in 96 well plates. Serial dilutions of [225Ac]IgG are added (triplicate) to the cells to yield final activity in the wells ranging from 74 kBl/mL to 37E-6 kB q/mL. Non-specific killing is measured after target cells are blocked with a 100-10000-fold excess of unlabeled IgG before plating and subsequent addition of [225Ac]IgG.

[3] = system: LNCaP tumor xenograft; assay: Biodistribution of 225Ac/221Fr/213Bi in LNCaP tumor bearing mice; settings: for A2(o)/A2(eq) Bi-213 at sacrifice time / A2(o)/A2(eq) Fr-221 at sacrifice time / % ID/g Ac-225 / % ID/g Bi-213 / % ID/g Fr-221: 48 hour, mean; for A2(o)/A2(eq) Bi-213 at sacrifice time / A2(o)/A2(eq) Fr-221 at sacrifice time: daughter/parent ratio
Experimental: An [225Ac]DOTA-J591 biodistribution experiment was carried-out using a male athymic nude (8-12 weeks old) mouse (Taconic, Germantown, N.Y.) model with an i.m. xenograft of 5E6 LNCaP tumor cells in Matrigel (Becton Dickinson Labware, Bedford Mass.) implanted in the right hind leg. The tumors were allowed to grow for 4 weeks and then the mice were separated into two groups (n=12 per group). One group received approximately 0.55 mL of [225Ac]DOTA-J591 (350 nCi ^225Ac on 0.0035 mg J591) and the other group received the irrelevant control [225Ac]DOTA-HuM195 (350 nCi 225Ac on 0.0026 mg HuM195) via i.p. injection. Three to four animals from each group were sacrificed at 48 h and 72 h post injection. Blood and tissue samples including: heart, kidneys, lung, spleen, liver, stomach, intestine, and tumor were harvested, weighed and counted using a Packard Cobra Gamma Counter (Packard Instrument Co., Inc., Meriden, Conn.) with two energy windows, ^221Fr (185-250 KeV window) and ^213Bi (360-480 window). The percent of the injected dose per gram of tissue (% ID/g) was determined by measuring the activity in […] aliquots of each respective [^225Ac]mAb injectate in triplicate. After the initial 48 h time point data was analyzed, attention was focused on collection of blood, tumor, heart, kidney and small intestine samples as the need to rapidly sacrifice, harvest, and count was necessary in order to measure ^221Fr in the samples.
Using known methods (28), values of A2(o)/A2(eq) were determined for each tissue sample.

[4] = system: antigen positive cells (HL60); assay: Cell based immunoreactivity assay, antigen positive cells; format: binding, human; settings: HL60, antigen excess, on ice
Experimental: as §1, §2

[5] = system: HL60 cells; assay: In vitro internalization of 225Ac-HuM195-DOTA; format: cell-based, human; settings: 37° C., in 5 hours
Experimental: The internalizing ability of the purified ^225Ac-HuM195-DOTA was tested with HL60 cells. The cells were washed twice with complete media and then incubated for 20 min on ice in complete media containing 2% rabbit serum. The cells were washed twice with ice cold complete media and then resuspended in 5 ml of complete media at a density of 5×10^6 cells/ml. After placing the cell suspension on ice purified ^225Ac-HuM195-DOTA (15 ng) was added. After mixing a sample of the sample of the cell suspension as taken and the rest of the cell suspension was placed into a 37° C. incubator. At various time points samples of the cell suspensions were taken. The samples were centrifuged, the supernatant removed and the cells washed twice with ice cold PBS. Stripping buffer (50 mM glycine, 150 mM NaCl, pH 2.8) was added to the cells and allowed to incubate for 10 min at room temperature. The cells were centrifuged and the supernatant drawn off and saved for counting. The cell pellet was washed once with PBS and both the cell pellet and wash were saved for counting.

225Ac-HuM195-DOTA
activity retained by the cells (immunoreactivity) [1]: 2%
LD50 ([2]; HL60 (non-specific), excess unlabeled antibody, S.A. 0.089 GBq/g): 185.0 Bq/mL
LD50 ([2]; HL60 (specific), S.A. 8.9 GBq/g): 0.3 Bq/mL
LD50 ([2]; HL60, Ac-225 construct, S.A. 0.24 Ci/g): 8 pCi/mL
LD50 ([2]; HL60, specific activity 0.094 nCi/ng, 2 days at 37° C. then tritiated thymidine 5 h): about 1.3 nCi/ml
225Ac uptake in the liver ([3]; 48 h, LNCaP tumor bearing mice, i.p.): less than 8%
A2(o)/A2(eq) Bi-213 at sacrifice time ([3]; Blood): 0.04
A2(o)/A2(eq) Fr-221 at sacrifice time ([3]; Blood): 0.13
% ID/g Ac-225 ([3]; Blood): 13.5 % ID/g
% ID/g Bi-213 ([3]; Blood): 0.55 % ID/g
% ID/g Fr-221 ([3]; Blood): 0.18 % ID/g
A2(o)/A2(eq) Bi-213 at sacrifice time ([3]; Heart): 0.99
A2(o)/A2(eq) Fr-221 at sacrifice time ([3]; Heart): 1.6
% ID/g Ac-225 ([3]; Heart): 3.9 % ID/g
% ID/g Bi-213 ([3]; Heart): 3.9 % ID/g
% ID/g Fr-221 ([3]; Heart): 6.1 % ID/g
A2(o)/A2(eq) Bi-213 at sacrifice time ([3]; Kidneys): 10.0
A2(o)/A2(eq) Fr-221 at sacrifice time ([3]; Kidneys): 16.8
% ID/g Ac-225 ([3]; Kidneys): 4.7 % ID/g
% ID/g Bi-213 ([3]; Kidneys): 46.5 % ID/g
% ID/g Fr-221 ([3]; Kidneys): 72.8 % ID/g
A2(o)/A2(eq) Bi-213 at sacrifice time ([3]; Liver): 0.87
A2(o)/A2(eq) Fr-221 at sacrifice time ([3]; Liver): 0.70
% ID/g Ac-225 ([3]; Liver): 7.7 % ID/g
% ID/g Bi-213 ([3]; Liver): 6.5 % ID/g
% ID/g Fr-221 ([3]; Liver): 5.5 % ID/g
A2(o)/A2(eq) Bi-213 at sacrifice time ([3]; Sm. Int.): 4.0
A2(o)/A2(eq) Fr-221 at sacrifice time ([3]; Sm. Int.): 13.3
% ID/g Ac-225 ([3]; Sm. Int.): 1.6 % ID/g
% ID/g Bi-213 ([3]; Sm. Int.): 6.3 % ID/g
% ID/g Fr-221 ([3]; Sm. Int.): 18.7 % ID/g
A2(o)/A2(eq) Bi-213 at sacrifice time ([3]; Tumor): 0.87
A2(o)/A2(eq) Fr-221 at sacrifice time ([3]; Tumor): 0.83
% ID/g Ac-225 ([3]; Tumor): 1.60 % ID/g
% ID/g Bi-213 ([3]; Tumor): 5.0 % ID/g
% ID/g Fr-221 ([3]; Tumor): 4.6 % ID/g
activity associated with the cells (immunoreactivity) [4]: 74%
activity internalized [5]: 50%
